Where two headings read alike, the source gives them in different places. Each block holds one binder with its values, some of them ahead of it.
Tests used:
[1] = biological target: T1, human CD73 on cells (H322, MDA-MB-231, HT-144, T cells, CD73-transfected HEK293T) (human, UniProt P21589 27-549); assay: cell-based or functional assay
T1 sequence (looked up): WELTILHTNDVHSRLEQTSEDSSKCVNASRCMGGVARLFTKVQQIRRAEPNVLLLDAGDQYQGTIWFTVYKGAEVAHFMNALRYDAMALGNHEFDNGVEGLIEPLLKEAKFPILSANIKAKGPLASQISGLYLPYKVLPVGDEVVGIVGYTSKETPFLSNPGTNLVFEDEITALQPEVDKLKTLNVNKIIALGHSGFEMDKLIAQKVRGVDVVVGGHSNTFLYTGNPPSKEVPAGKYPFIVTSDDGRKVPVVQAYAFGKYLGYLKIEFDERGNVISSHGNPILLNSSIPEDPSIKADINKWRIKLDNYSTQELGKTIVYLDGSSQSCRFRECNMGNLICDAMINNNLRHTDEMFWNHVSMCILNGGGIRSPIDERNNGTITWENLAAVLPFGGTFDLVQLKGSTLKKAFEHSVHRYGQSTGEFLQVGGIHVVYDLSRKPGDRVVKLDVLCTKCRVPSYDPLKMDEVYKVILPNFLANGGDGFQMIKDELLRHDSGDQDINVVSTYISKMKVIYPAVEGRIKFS

[2] = biological target: T2, cynomolgus CD73 (Biacore analyte) (cynomolgus, UniProt A0A2K5V5U7 27-547); assay: SPR, Biacore 8K, antibody captured on CM5 chip, CD73 as analyte, multicycle kinetics, 1:1 model
T2 sequence: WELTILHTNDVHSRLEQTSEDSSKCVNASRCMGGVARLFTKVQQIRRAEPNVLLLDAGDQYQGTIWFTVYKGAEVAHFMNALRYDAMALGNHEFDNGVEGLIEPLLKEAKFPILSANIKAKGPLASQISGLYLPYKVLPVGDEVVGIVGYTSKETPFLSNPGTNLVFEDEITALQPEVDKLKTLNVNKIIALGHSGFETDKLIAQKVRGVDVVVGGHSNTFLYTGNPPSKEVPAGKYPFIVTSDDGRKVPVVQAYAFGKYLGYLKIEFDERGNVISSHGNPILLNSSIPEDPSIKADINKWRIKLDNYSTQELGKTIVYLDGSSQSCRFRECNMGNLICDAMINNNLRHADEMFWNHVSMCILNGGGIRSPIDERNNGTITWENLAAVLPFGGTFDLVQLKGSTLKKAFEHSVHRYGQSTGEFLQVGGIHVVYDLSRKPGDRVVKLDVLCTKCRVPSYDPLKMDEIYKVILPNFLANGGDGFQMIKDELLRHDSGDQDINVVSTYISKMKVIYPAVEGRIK

[3] = biological target: T3, human CD73 antigen (Biacore analyte) (human, UniProt P21589 27-547, limits assumed); assay: as above
T3 sequence (looked up): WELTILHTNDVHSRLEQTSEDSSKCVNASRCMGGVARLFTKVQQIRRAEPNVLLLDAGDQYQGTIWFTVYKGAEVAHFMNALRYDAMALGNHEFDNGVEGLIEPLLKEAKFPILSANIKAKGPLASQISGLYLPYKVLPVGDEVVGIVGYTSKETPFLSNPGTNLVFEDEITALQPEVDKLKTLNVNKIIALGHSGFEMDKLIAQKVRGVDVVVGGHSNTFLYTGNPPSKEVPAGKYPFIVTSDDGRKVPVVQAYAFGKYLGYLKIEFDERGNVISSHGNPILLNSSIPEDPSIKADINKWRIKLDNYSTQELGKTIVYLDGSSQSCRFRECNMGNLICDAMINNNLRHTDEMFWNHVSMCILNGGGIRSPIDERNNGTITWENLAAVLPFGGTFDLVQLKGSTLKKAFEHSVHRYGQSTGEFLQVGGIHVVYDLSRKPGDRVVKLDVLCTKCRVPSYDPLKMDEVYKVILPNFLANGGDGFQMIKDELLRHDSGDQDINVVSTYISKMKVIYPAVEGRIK

[4] = biological target: T1, human CD73 on cells (H322, MDA-MB-231, …); assay: cell-based or functional assay; remark: listed apart in the source
[5] = biological target: T1, human CD73 on cells (H322, MDA-MB-231, …); assay: flow cytometry, HEK293T cells forcibly expressing human CD73 (293T_hCD73) against untransfected 293T cells, APC channel
[6] = biological target: T1, human CD73 on cells (H322, MDA-MB-231, …); assay: cell-based or functional assay; remark: listed apart in the source
[7] = biological target: T1, human CD73 on cells (H322, MDA-MB-231, …); assay: flow cytometry on H322 cells (endogenous CD73), fluorescently labeled secondary antibody, PE channel
[8] = biological target: T1, human CD73 on cells (H322, MDA-MB-231, …); assay: flow cytometry on MDA-MB-231 cells (endogenous CD73), fluorescently labeled secondary antibody, PE channel

B3: 002_m antibody (antibody, V domains shown)
VH: QVQMKQSGPELVKPGASVKIPCKASGYTFTDCNMDWVKQSHGESLEWIGDINPNNGGTIYNQKFKGKVTLTIDKSSSTAYMELRSLTSEDTAVYYCARTNWDYAMDYWGQGTSVTVSS
VL: DIQMTQSPSSMYASLGERVTITCKASQDINSNLSWFQQKPGKSPKTLIYRANRLIDGVPSRFSGSGSGQDYSLTISSLEYEDMGIYYCLQYDVFPRTFGGGTKLELK
- IC50 of AMP degradation suppressive function, H322 cells [6]: 0.089 µg/mL

B4: 004_h3 antibody (antibody, V domains shown)
VH: EVQLVQSGAEVKKPGESLKISCKASGYTFTGYWMNWLRQMPDKGLEWMGRIDPYDSETHYSQKFKDKVTITAHKSSSTAYLQWSSLKASDSAIYYCARSSPITTAPFDYWGQGTTVTVSS
VL: DIVMTQSPASLAVSLGERATISCRASESVDYYGFSFMNWYQQKPGQPPKLLIYAASTQGSGVPDRFSGSGSGTDFTLTISSLQAEDVAVYYCQQSKEVPYTFGGGTKVEIK
notes: Humanized antibody based on 004_m
- binding result [5]: binds

B5: 005_m antibody (antibody, V domains shown)
VH: DVQLVESGPGLVAPSQSLSITCTVSGFSLTSYGVSWVRQPPGKGLEWLGVIWGDGSTNYHSALISRLSISKDNSKSQVFLKLNSLQTDDTATYYCAKTNIFYDYDWYLDVWGAGTTVTVSS
VL: DIVMTQAPLSLPVSLGDQASISCRSSQSLVHSNGNTYLHWYLQKPGQSPKLLIYKVSNRFSGVPDRFSGSGSGTDFTLKISRVEAEDLGVYFCSHSTHVPWTFGGGTKLELK
notes: Mouse antibody expressed recombinantly in CHO cells
- binding result [7]: binds

More lines, now with the values ahead:

- IC50 of AMP degradation suppressive function, MDA-MB-231 cells [1]: 0.032 µg/mL
- Kd [2]: 0.273 nM
- Kd [3]: 0.204 nM
- IC50 of AMP degradation suppressive function, H322 cells [4]: 0.069 µg/mL
B1: 002_6_h4 antibody (antibody, V domains shown)
VH: QVQMKQSAAEVRKPGASVKVSCKASGYTFTDSNMDWVRQAPGQGLEWMGDINPNNGGTIYNQKFKGRVTMTIDTSRSTAYMELRSLRSDDTAVYYCARTNWDYAMDYWGQGTTVTVSS
VL: DIQMTQSPSFLSASVGDRVTITCKASQDINSQLSWYQQKPGKAPKTLIYRANRLIDGVPSRFSGSGSGTDFTLTISSLQYEDMATYYCLQYDVFPRTFGGGTKLEIK
notes: Humanized antibody of 002_6_c; also called humanized anti-CD73 antibody 002_6_h4; lead antibody

- binding result [5]: binds
B2: 008_h4 antibody (antibody, V domains shown)
VH: QVQLVQSGAEVKKPGASVKVSCKASGYTFTSYWMHWVRQRPGQGLEWMGEINPSNGRTNYNEKFKNRATITADKSSSTAYMELSSLRSEDTAVYYCARRGTSGNYFDYWGQGTLVTVSS
VL: DIQMTQSPSSLSASVGDRVTITCKASQDINTYLSWFQQKPGKAPKTLIYRANRLVDGVPSRFSGSGYGTDFTLTISSLQYEDMATYYCLQYDEFPYTFGGGTKVEIK
notes: Humanized antibody based on 008_m

- binding result [8]: binds
B6: 009_m antibody (antibody, V domains shown)
VH: QVQLQQSGAELVRPGASVKLSCKASGYTFTSYWMNWVKQRPEPGLEWIGRIDPYDSEAHYNQKFKDKAILTVDKSSSTAYMQLSSLTSEDSAVYYCTRIRYGTFDYWGQGTTLTVSS
VL: DIVLTQSPSSMYASLGERVTITCKASQDINSYLSWFQQKPGKSPKTLIYRSNSLVDGVPSRFSGSGSGQDYSLTISSLEYEDMGSYYCLQYDEFPYTFGGGTRLEIKR
notes: as for B5

- Kd [2]: 0.457 nM
- Kd [3]: 0.426 nM
B7: 006_hKB antibody (antibody, V domains shown)
VH: QVQLLQSGAEVKKPGESVKISCKASGYTFTSYWMHWVKQRPGQGLEWIGEINPSNARTNYNENFKSRFTITVDKSTSTAYMQFSRLRSDDTAVYYCARRGTSGNYFDFWGQGTMLTVSS
VL: DIQMTQSPSSLSASLGQRVTITCKASQDINTYLSWFQQKPGKPPKTLIYRANRLVDGVPSRFSGSGSGEDYSLTISSLQSEDFGVYYCLQYDEFPYTFGPGTRLEIK
notes: Humanized antibody based on 006_m
